Consider one substance from article PMC2810501.

The target in the test is specific saturable binding sites for S100A8/A9 on cell membranes of blood MDSC (carboxylated N-glycan receptors). The experiment in a line: radioligand binding.

Regarding “S100A8/A9 heterodimer, purified, Na125I-labeled (from UniProt P27005 1-89; P31725 1-113) (complex)”, the Kd (in general, the concentration at which binding is half-saturated) worked out at 37.4 nM.
